For the series, the target named is T1, Hfq (Pseudomonas putida KT2440, UniProt Q88DD3 1-86).
T1 sequence: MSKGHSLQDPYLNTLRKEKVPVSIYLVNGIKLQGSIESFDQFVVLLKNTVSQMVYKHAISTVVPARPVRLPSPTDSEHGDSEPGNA
Kind of series: EMSA. For orientation: In EMSA bound probe runs differently from free probe, usually more slowly.

B1: MicC scaffold (structured_RNA)
RNA: UUUCUGUUGGGCCAUUGCAUUGCCACUGAUUUUCCAACAUAUAAAAAGACAAGCCCGAACAGUCGUCCGGGCUUUUUUU
Turning to B1, the binding result was “binds”.
